# Results reported in patent publication US20080125498.
# Legend:
# [1] = target: T1, protease-activated receptor 1 (PAR1), mouse, endogenous in hippocampal slices and cultured astrocytes (UniProt P30558)
# T1 sequence: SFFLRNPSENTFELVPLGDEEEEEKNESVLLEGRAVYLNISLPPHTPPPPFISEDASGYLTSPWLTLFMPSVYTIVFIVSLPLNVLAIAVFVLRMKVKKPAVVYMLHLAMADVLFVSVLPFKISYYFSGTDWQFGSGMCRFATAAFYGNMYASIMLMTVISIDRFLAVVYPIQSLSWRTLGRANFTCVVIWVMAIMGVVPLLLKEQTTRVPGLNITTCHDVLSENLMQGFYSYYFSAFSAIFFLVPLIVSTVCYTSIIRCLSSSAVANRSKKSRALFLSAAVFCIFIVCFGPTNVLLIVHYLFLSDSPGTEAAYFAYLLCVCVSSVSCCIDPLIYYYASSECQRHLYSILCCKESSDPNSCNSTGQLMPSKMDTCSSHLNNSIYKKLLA
# [2] = target: NMDA receptor NR1 subunit in adult rat brain membranes (UniProt P35439)
# [3] = test system: recombinant NR1-1b subunit transiently expressed in HEK 293 cells
# [4] = test system: N-terminal myc-tagged NR1-1a
# [5] = target: endogenous plasminogen in mouse brain slices (UniProt P20918)
# Chain of endogenous plasminogen in mouse brain slices (P20918 20-812): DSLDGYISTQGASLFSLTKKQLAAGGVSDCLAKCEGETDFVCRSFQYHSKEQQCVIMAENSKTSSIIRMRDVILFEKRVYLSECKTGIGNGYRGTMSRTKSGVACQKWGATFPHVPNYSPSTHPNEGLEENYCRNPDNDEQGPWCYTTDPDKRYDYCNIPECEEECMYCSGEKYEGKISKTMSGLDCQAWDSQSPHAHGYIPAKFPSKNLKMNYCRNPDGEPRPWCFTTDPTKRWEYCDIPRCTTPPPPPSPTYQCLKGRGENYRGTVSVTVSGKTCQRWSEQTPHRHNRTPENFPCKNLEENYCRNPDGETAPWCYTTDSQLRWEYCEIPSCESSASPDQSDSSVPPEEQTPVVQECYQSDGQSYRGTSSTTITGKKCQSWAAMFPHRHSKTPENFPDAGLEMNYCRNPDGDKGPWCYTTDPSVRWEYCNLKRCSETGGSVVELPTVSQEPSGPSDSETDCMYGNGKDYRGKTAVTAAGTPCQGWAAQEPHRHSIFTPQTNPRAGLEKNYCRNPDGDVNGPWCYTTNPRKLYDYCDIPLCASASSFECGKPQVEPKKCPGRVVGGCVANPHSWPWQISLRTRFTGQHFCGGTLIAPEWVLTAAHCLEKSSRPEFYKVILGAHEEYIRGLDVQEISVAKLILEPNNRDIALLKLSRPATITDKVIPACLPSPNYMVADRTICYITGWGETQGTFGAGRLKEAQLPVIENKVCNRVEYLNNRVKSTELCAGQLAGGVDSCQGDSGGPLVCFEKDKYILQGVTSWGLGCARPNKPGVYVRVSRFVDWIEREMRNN
# Chain of tissue plasminogen activator (P00750 36-562): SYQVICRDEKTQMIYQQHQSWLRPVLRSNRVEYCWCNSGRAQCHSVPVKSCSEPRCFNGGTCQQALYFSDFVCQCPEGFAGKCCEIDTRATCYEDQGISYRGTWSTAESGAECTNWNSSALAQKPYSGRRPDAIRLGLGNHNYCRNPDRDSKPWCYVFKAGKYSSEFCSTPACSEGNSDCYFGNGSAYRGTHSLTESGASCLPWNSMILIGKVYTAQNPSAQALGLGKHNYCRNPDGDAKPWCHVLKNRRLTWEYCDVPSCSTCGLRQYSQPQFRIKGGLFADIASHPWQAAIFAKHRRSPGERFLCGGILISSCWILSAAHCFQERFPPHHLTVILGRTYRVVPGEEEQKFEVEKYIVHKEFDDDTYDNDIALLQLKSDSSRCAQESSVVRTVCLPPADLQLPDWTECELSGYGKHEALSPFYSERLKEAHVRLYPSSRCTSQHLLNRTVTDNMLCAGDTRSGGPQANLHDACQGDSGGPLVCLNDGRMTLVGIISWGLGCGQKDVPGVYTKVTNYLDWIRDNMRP
Substance,PI hydrolysis in hippocampal slices [1],NR1 cleavage product in CA1 region after 15 minutes of 3 U/ml thrombin on slices [2],"maximal percent of NR1 cleaved, striatal membranes [2]","percent of NR1 cleaved, all brain regions except striatum, 1-3 micromolar thrombin [2]","percent of NR1 cleaved, cerebellar, cortical and brainstem membranes, 300 nM thrombin [2]","percent of NR1 cleaved, hippocampal membranes, 30 nM thrombin [2]","percent of NR1 cleaved, striatal membranes, 30 nM thrombin [2]",proteolysis of NR1 (immunoblot) [2],proteolysis of recombinant NR1-1b (immunoblot) [3],proteolysis of myc-tagged NR1-1a (immunoblot) [4],PI hydrolysis after tPA application to hippocampal slices [1],PI hydrolysis in hippocampal slices [5]
alpha-thrombin,"Both thrombin and plasmin increased PI hydrolysis in wild type hippocampus, but not in the hippocampus of PAR1-/- mice",no NR1 cleavage product was observed in immunoblots of membranes obtained from the CA1 region microdissected immediately following the experiment,the maximal observed cleavage of 52% suggests a thrombin resistant population of NR1 subunits exists,1-3 micromolar thrombin cleaved 100% or subunits in all brain regions except striatum,"cerebellar (n=7), cortical (n=5), and brainstem (n=5) NR1 subunits were insensitive to cleavage by 300 nM thrombin (30 U/ml)",30 nM thrombin (3 U/ml) cleaved 20% of the NR1 subunit in hippocampal membranes (n=7),50% of NR1 in striatal membranes (n=10),Incubation of brain membranes with thrombin for 1 hour at 37 °C resulted in the appearance of a new band that was 12 kD (n=10) lower in molecular weight than the parent band,10-1000 U/ml of thrombin cleaved both homomeric NR1-1b receptors (n=9/10 experiments) and heteromeric NR1-1b/NR2B receptors (n=6/6 experiments),Thrombin induced a similar shift in molecular weight for N-terminal myc-tagged NR1 as observed for the recombinant and native receptors detected with mAb54.1,–,–
plasmin,"Both thrombin and plasmin increased PI hydrolysis in wild type hippocampus, but not in the hippocampus of PAR1-/- mice",–,–,–,–,–,–,–,–,–,Application of tPA to wild type hippocampal slices significantly increased PI hydrolysis compared with application to PAR1-/-hippocampal slices,–
tissue plasminogen activator,–,–,–,–,–,–,–,–,–,–,–,application of tPA did not increase PI hydrolysis in plasminogen-deficient mice
